Consider three molecules from patent US20150322152A1 (INSTITUT PASTEUR, published 2015).

In assay [1] the target is human FcγRI receptor (immobilized for SPR; form not stated) (human) (UniProt P12314). Kind of assay: SPR, IgG injected onto immobilized hFcγRI.
The target is the same in assay [2]. As to the kind of experiment: SPR, IgG injected onto immobilized hFcγRI. The source holds these as a separate data set. Background: Surface plasmon resonance follows binding to a sensor surface in real time, without labels.
Assay [3] has the same target. Kind of assay: SPR on immobilized hFcγRI (summary sentence; the table prints 41).
Assay [4] deals with T1, human FcγRI receptor (immobilized for SPR; form not stated) (human, UniProt P12314 16-288, limits assumed).
T1 construct: also called hFcγRI; immobilized hFcγRI
As to the kind of experiment: method not stated.

Chain of human FcγRI receptor (immobilized for SPR; form not stated) (human) (P12314 16-288 limits assumed): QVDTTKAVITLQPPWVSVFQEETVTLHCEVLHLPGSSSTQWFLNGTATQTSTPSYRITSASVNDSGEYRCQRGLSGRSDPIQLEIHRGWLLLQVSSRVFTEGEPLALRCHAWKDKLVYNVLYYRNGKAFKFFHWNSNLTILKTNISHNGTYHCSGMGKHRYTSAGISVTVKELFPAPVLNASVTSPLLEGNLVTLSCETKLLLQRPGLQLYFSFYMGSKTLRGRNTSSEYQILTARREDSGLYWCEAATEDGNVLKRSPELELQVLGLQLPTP
T1 sequence (P12314 16-288 limits assumed): as above

In assay [1], mouse IgG2a (antibody) returned a Half life of 271 s, an equilibrium dissociation constant (Kd) of 38 nM, a koff of 0.0011 s⁻¹ and a kon of 36000 M⁻¹ s⁻¹. In assay [2], this molecule returned a Ka of 2.5e+07 M⁻¹ and a dissociation constant (Kd) of 40 nM.

In assay [1], human IgG1 (antibody) yielded a Half life of 216 s, a dissociation constant Kd of 41 nM, a dissociation rate constant (koff) of 0.0014 s⁻¹ and an on-rate constant (kon) of 35000 M⁻¹ s⁻¹. In assay [2], this molecule returned a Ka of 2.5e+07 M⁻¹ and a Kd of 40 nM. Further, the dissociation constant Kd in assay [3] turned out to be 40 nM.

B1: anti-hFcγRI.1 monoclonal antibody (antibody, mouse IgG2a, V domains shown)
VH: EVQLQESGPGLVQPSQSLSITCTVSGFSLTTYGVHWVRQSPGKGLEWLGMIWSGGSTDYNAAFISRLSISKDNSKSQVFFKMNSLQADDTAIYYCAREWFAYWGQGTSVTVSS
VL: ELVMTQSPASLSASVGETVTITCRASENIYSYLAWYQQKQGKSPQLLVYSAKTLAEGVPSRFSGSGSGTQFSLKINSLQPEDFGSYYCQHHYGTPYTFGGGTKMEIK
notes: Mouse IgG2a; IgG purified by Protein G from hybridoma supernatant; also called anti-hFcγR1.1; hFcγRI.1 mAb
As for B1, the Ka in assay [4] was 1.5e+09 M⁻¹.

The term Kd denotes the equilibrium constant for the complex coming apart. Higher therefore signals weaker binding. As usually defined, the koff is the first-order rate constant of dissociation. One may read the kon as the rate constant with which the complex forms. A high value points to faster complex formation.
